# Measured values from publication PMC9560800.
# Values joined by “and” are separate entries in the source; they are usually repeats but may differ in a detail not shown here. Identical values can stand only once.
# Key:
# [1] = target: tag-less B.1.617.2 trimeric spike protein (SARS-CoV-2 | T4 phage); experiment: SEC-MALS
# [2] = target: tag-less B.1.351 trimeric spike protein (SARS-CoV-2 | T4 phage); experiment: SEC-MALS
substance,measurement,setting,value
tag-less B.1.617.2 trimeric spike protein,stoichiometry N,[1],3 and 6
tag-less B.1.351 trimeric spike protein,stoichiometry N,[2],3 and 6
